Data on 20 sequences can be found in the supplement of paper PMC9170038.

For data set [1], the system named is MS2 coat protein. In words: apparent KD of MS2 coat protein, switch OFF state (with FMN for OFF switches, without FMN for ON switches); designed switch direction (-1 OFF switch, 1 ON switch): -1; higher = weaker reporter binding. The note with it: FMN input: 0 or 200 uM; Eterna round: R93 (includes R88 designs). The method, boiled down: (§1)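 SNAP-549-labelled MS2 coat protein was titrated onto designed RNA switches that had been transcribed on-chip from Illumina sequencing clusters. Amounts doubled from 0.7 or 1.5 nM to 3 µM in 100 mM Tris-HCl pH 7.5, 80 mM KCl, 4 mM MgCl2, with constant ligand or without. Apparent KD is the median per design of normalised cluster binding-curve fits.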

The test system of data set [2] is MS2 coat protein. In words: apparent KD of MS2 coat protein, switch ON state; designed switch direction (-1 OFF switch, 1 ON switch): -1; higher = weaker reporter binding. The note with it: FMN input: 0 or 200 uM; Eterna round: R93 (includes R88 designs). The method in brief: as §1

In the case of “AAGAAGGGAGGAUAUACUAAAGAAAUGAAAAGAAAUAAAGAACAUGAGGAUCACCCAUGUAGAAGGCCCAAGAA [Nehesy]”, the “apparent KD of MS2 coat protein” value in the data set with MS2 coat protein [1] amounted to 24.8 nM; with MS2 coat protein [2], 29.7 nM.

For the sequence “AAGAAGUCAGGAUAUGCCAGAGAACAAGAAAGUGACGAAUAGCAGAAGGGACAUGAGGAUCACCCAUGUAAAGA [Opal 10]”, the “apparent KD of MS2 coat protein” value in the data set on MS2 coat protein [1] turned out to be 21.9 nM; in the data set on MS2 coat protein [2], 33.7 nM.

“AAGAAGUGAGGAUAUCGAAGACAGACGAAAAGUCUGUCAAACGAGAAGGCACAUGAGGAUCACCCAUGUGAGAA [What have we learned so far? 64% 2]”: the “apparent KD of MS2 coat protein” value with MS2 coat protein [1] is 38.1 nM; with MS2 coat protein [2], 22.6 nM.

Consider “AAGAAGUGAGGAUAUCGAAGACAGACGAAAAGUCUGUCAAACGAGAAGGCACAUGAGGAUCACCCAUGUGGGAA [What have we learned so far? 64% 3]”, for which the “apparent KD of MS2 coat protein” value with MS2 coat protein [1] came to 169 nM; in the data set with MS2 coat protein [2] it was 69.5 nM.

With “AAGAAGUGAGGAUAUGUCUGUGCGAAAAAAAAAAAGUGCAGACAGAAGGCACAUGAGGAUCACCCAUGUCAAAA [Florian Witold Znaniecki]”, the “apparent KD of MS2 coat protein” value in the data set on MS2 coat protein [1] came to 39 nM; in the data set with MS2 coat protein [2] it was 39.4 nM.

For “AAGAAUUCAGGAUAUACAAGGAAGAAAGAAAAGAAAAGAAAACAUGAGGAUCACCCAUGUAGAAGGGAAUAGAA [EteRNA is fun!]”, the “apparent KD of MS2 coat protein” value came out at 26.6 nM in the data set with MS2 coat protein [1] and 40 nM with MS2 coat protein [2].

For the sequence “AAGACUACAGGAUAUACAUGAGGAUCACCCAUGUAACUGACGGGUAGAUGACGGAGAAGUAGAAGGGUAGUCAA [Ruby 37]”, the “apparent KD of MS2 coat protein” value in the data set with MS2 coat protein [1] turned out to be 40.6 nM; with MS2 coat protein [2] it was 67.2 nM.

Take “AAGACUAGAGGAUAUACAUGAGGAUCACCCAUGUAACUGUCAGGAGACUGACGGAGAAGUAGAAGGCUAGUCAA [Mat - Exclusion 3 - JL mod - D84]”: the “apparent KD of MS2 coat protein” value with MS2 coat protein [1] came out at 19.4 nM; in the data set with MS2 coat protein [2], 15.8 nM.

For “AAGAGUACAGGAUAUAUAUGAAAAGAGUCGAAAGACUCAAAACAUGAGGAUCACCCAUGUAGAAGGGUACUCAA [Hyphema Seclusion Mod 62% 1]”, the “apparent KD of MS2 coat protein” value with MS2 coat protein [1] was found to be 22.9 nM; with MS2 coat protein [2], 36.8 nM.

For the sequence “AAGGUACGAGGAUAUACAUAGAUACAGAUACAUGUAGACGUACAUGAGGAUCACCCAUGUAGAAGGCGUAUAUA [AJ 24]”, the “apparent KD of MS2 coat protein” value in the data set on MS2 coat protein [1] worked out at 83 nM; in the data set on MS2 coat protein [2], 46.8 nM.

With “AAGGUAUGAGGAUAUACAUAGAUACAGACACAUGUUCAAGUACAUGAGGAUCACCCAUGUAGAAGGCAUAUAUA [AJ 14]”, the “apparent KD of MS2 coat protein” value with MS2 coat protein [1] turned out to be 33 nM; in the data set with MS2 coat protein [2], 24.2 nM.

On to “AAGUAUCGAGGAUAUACAUAGAUACAGAUUCAUGUAGAACUACAUGAGGAUCACCCAUGUAGAAGGCGAUAAUA [AJ 33]”, for which the entries for the “apparent KD of MS2 coat protein” value in the data set on MS2 coat protein [1] and with MS2 coat protein [2] were 79.3 nM and 31.8 nM, respectively.

For “AAUAAACAUGAGGAUCACCCAUGUAAGGAUAUGCGAACAAUAAGAAGACAAUAAUAAAGCAGAAGGUACAAGAG [Ex1 sub 1]”, the entries for the “apparent KD of MS2 coat protein” value in the data set with MS2 coat protein [1] and in the data set on MS2 coat protein [2] were 50 nM and 27 nM, respectively.

Consider “AAUAAACAUGAGGAUCACCCAUGUCAGGAUAUGCACAAACAAACAAACAAACAAGCUAGCAGAAGGGACACUAC [Amethyst 87]”, for which the “apparent KD of MS2 coat protein” value was 31 nM with MS2 coat protein [1] and 23.1 nM with MS2 coat protein [2].

In the case of “AAUAACAGAGGAUAUACUAAAGAAAUGAAAAGAAAUAAAGAACAUGAGGAUCACCCAUGUAGAAGGCUGAAUAA [Sheneh]”, the “apparent KD of MS2 coat protein” value in the data set with MS2 coat protein [1] stood at 21.5 nM; in the data set with MS2 coat protein [2], 16.9 nM.

Take “AAUAAGUCAGGAUAUACUAUGUCAGGAGAGAGACUGACUAUGUAGAAGGGACAUGAGGAUCACCCAUGUAAUAA [JR_Exclusion4_Sub5]”: the “apparent KD of MS2 coat protein” value with MS2 coat protein [1] turned out to be 36.1 nM; in the data set on MS2 coat protein [2], 47.4 nM.

Take “AAUAAGUGAGGAUAUACGAAAUAAAUAAAUAAAUAAAUAAAGUAGAAGGCACAUGAGGAUCACCCAUGUAAUAA [My Mind Is Going Dave]”: the “apparent KD of MS2 coat protein” value was determined as 29.7 nM in the data set with MS2 coat protein [1] and 34.4 nM in the data set on MS2 coat protein [2].

As for “AAUAAGUGAGGAUAUGCAAAUAAUAAAUAAAAUAAAAUAAAGCAGAAGGCACAUGAGGAUCACCCAUGUAAAUA [JR_Exc004_Sub001]”, the figures for the “apparent KD of MS2 coat protein” value in the data set on MS2 coat protein [1] and in the data set on MS2 coat protein [2] were 29.5 nM and 34 nM, respectively.

Consider “AAUAAGUGAGGAUAUGGAAAUAAUAAAUAAAAUACCCUAAACCAGAAGGCACAUGAGGAUCACCCAUGUAAAUA [JR_Exc004_Sub003]”, for which the “apparent KD of MS2 coat protein” value in the data set with MS2 coat protein [1] is 28 nM; in the data set on MS2 coat protein [2], 34.1 nM.

With “AAUGCGGCAGGAUAUACAUGAGGAUCACCCAUGUAGAUCAGAUAUAUGGGAAAGCCAUGUAGAAGGGCCGCAAA [Ex 3May 61]”, the “apparent KD of MS2 coat protein” value in the data set with MS2 coat protein [1] was 24.8 nM; with MS2 coat protein [2], 94.6 nM.
